As usually defined, the Kd is the equilibrium constant for the complex coming apart. Higher therefore signals lower affinity.

In article PMC5476825, “Towards repurposing the yeast peroxisome for compartmentalizing heterologous metabolic pathways” (Nature Communications, 2016) one finds Kd data, which are given here for three molecules.

Experiment [1] concerns the target T1, His6-Pex5c, C-terminal fragment (residues 295-612) of S. cerevisiae PEX5 (S. cerevisiae, UniProt P35056 295-612).
T1 construct: Pex5p (PEX5), PTS1 import receptor, S. cerevisiae, C-terminal fragment residues 295-612; Plasmid was a gift of Brooke M. Gardner; also called Pex5p C-terminal fragment; C-terminal truncation of Pex5p; not shown: His6, N-terminal, kept
T1 sequence (looked up): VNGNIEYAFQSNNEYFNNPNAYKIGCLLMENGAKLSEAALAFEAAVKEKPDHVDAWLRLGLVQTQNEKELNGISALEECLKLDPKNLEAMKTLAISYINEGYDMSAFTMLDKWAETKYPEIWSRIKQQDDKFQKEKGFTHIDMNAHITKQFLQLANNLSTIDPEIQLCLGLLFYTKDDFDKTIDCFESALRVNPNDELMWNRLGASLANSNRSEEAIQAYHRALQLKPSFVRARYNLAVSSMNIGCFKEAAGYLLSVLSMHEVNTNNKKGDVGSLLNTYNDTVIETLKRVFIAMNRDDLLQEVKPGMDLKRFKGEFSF
In words: fluorescence polarisation; competition: 375 nM Pex5c and 20 nM 5FAM-…, unlabelled … (4 mM to 3.8 nM) or … (0.5 mM to 0.47 nM) added; 50 mM HEPES pH 7.4, 100 mM NaCl, 0.05% Tween-20; equilibrated 16 h at 4 °C; fit with equation 17 of Roehrl et al. The note with it: both partners purified. For orientation: Polarisation of emitted light reports the rotation of a fluorescent probe.

Experiment [2] deals with T1, His6-Pex5c, C-terminal fragment …. In words: fluorescence polarisation; direct titration: His6-Pex5C from 6.5 uM downward in twofold increments against 20 nM 5FAM-…; 50 mM HEPES pH 7.4, 100 mM NaCl, 0.05% Tween-20; equilibrated 16 h at 4 °C; anisotropy converted to fraction bound. The following applies: both partners purified.

Primed or numbered codes have the meaning given here. Ends that are not written are not given here. 5FAM′ = 5-carboxyfluorescein

B1: ePTS1 peptide (LGRGRRSKL) (peptide)
peptide: LGRGRRSKL
notes: ePTS1: linker LGRGRR selected from a randomized six-residue linker library, followed by the canonical PTS1 SKL; also called enhanced PTS1; source: synthetic peptide, bought: Elim Biopharmaceuticals Inc
B1: in experiment [1], the Kd is 0.8 ± 0.1 µM.

B2: PTS1 peptide (DELYKGSKL) (peptide)
peptide: DELYKGSKL
notes: peptide that results from fusion of the canonical PTS1 (SKL) to the C-terminus of YFP; source: synthetic peptide, bought: Elim Biopharmaceuticals Inc
B2: in experiment [1], the Kd stood at 176 ± 17.3 µM.

B3: 5-Carboxyfluorescein-LGRGRRSKL (peptide)
peptide: {5FAM′}-LGRGRRSKL
notes: ePTS1: linker LGRGRR selected from a randomized six-residue linker library, followed by the canonical PTS1 SKL; also called fluorescein-tagged ePTS1 peptide; source: synthetic peptide, bought: Elim Biopharmaceuticals Inc
In turn, B3 showed a Kd in experiment [2] of 0.355 ± 0.00638 µM.
